Key:
[1] = biological target: T1, human LEPR CRH2-MMH (human, UniProt P48357 428-634, limits assumed); assay: Luminex, myc-captured LEPR protein on beads, Ab 0.5 µg/mL
T1 construct: domain: CRH2; Transiently expressed, captured from supernatant on anti-myc beads
T1 sequence (looked up): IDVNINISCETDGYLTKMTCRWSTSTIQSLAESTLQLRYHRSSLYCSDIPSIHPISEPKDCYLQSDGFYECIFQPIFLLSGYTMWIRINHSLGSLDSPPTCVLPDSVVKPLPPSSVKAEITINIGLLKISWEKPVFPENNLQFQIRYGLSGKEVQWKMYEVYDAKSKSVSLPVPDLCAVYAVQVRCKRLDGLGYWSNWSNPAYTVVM
Description: (§1) Aliquots of microspheres with immobilized anti-myc monoclonal antibodies, prepared as described above, were added individually to 1 mL of the each of these protein supernatants. The microspheres were gently mixed, incubated for two hours at 25° C., washed twice with 1 mL of DBPS, centrifuged to remove the supernatant and finally resuspended in 1 mL of DPBS buffer. Forty eight μL of anti-myc IgG coupled microspheres from individual reactions with full length human LEPR and with each of the human LEPR domain proteins were withdrawn and mixed together in 3.6 mL of PBS+20 mg/mL BSA+0.05% sodium azide (blocking buffer).
(§2) From this mixed pool, 75 μL of microspheres were plated per well on a 96 well filter plate (Millipore, Cat. No: MSBVN1250) and mixed with 25 μL of individual anti-human LEPR monoclonal antibodies (0.5 or 5 μg/mL), incubated for two hours at 25° C. and then washed twice with 200 μL of DPBS with 0.05% Tween 20 (washing buffer). […] After 30 minutes, the samples were washed twice with 200 μL of washing buffer and resuspended in 150 μL of wash buffer. The Median Fluorescence intensity (MFI) of the microspheres was measured in a Luminex Analyzer.

[2] = biological target: T2, human LEPR Ig-CRH2-FNIII-MMH (human, UniProt P48357 330-839, limits assumed); assay: as above
T2 construct: domain: Ig-CRH2-FNIII; Transiently expressed, captured from supernatant on anti-myc beads
T2 sequence (looked up): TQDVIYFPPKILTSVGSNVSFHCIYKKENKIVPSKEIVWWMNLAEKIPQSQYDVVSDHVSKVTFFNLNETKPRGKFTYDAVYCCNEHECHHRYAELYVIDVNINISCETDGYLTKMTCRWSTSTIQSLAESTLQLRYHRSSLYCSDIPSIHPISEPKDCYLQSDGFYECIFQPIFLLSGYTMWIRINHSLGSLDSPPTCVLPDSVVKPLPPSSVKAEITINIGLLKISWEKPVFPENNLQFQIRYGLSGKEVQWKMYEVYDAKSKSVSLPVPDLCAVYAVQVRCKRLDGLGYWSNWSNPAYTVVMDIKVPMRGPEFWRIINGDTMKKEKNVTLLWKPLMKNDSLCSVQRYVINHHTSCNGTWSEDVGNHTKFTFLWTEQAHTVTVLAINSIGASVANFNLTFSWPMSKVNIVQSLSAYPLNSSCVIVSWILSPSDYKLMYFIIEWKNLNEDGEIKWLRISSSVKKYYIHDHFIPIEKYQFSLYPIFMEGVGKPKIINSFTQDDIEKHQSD
Description: as §1, §2

B1: H4H18462P2 (antibody, human IgG4, V domains shown)
VH: EVQLVESGGDLVQPGRSLRLSCAASGFTFSSFAMSWVRQAPGRGLEWVSSLSDSGDNTYYADSVKGRFTISRDNSKNTLYLQMNNLRAEDTAVYYCAKDLFSGWLFHGFDVWGQGTMVTVSS
VL: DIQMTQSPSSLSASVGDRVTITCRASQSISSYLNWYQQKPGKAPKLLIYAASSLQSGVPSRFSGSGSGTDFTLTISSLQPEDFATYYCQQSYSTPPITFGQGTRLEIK
notes: H4H prefix: human IgG4 Fc
With B1 the “Luminex MFI” value [1] was 8 MFI and the “Luminex MFI” value [2] was 11200 MFI.
